The nature of the series: soluble on expression in E. coli; label from the status in PepcDB or PDB records.
Take “MGSDKIHHHHHHMKDGKLYVAFSGGKDSSLVAILAKMALGEERVELVTVDWSPYTYERSREIVRNFAEKHGLKHTFIPSNRMQEKVWKHGPSCNACTRDVKTVLVKRYAQGHLVASGANASDSWGKTGLKVFDGVYSPLCRVGKEEINEMLKFLGLEVKKIGESAGREGCKLKHLLKMLINPDYHGKAVSTANEILLRVLEEHGFKPELANVKIIGPLSRNIALVNVKPLPPEKVMNEIVEKLSAEETIDGVIVVDGPMKLVVLASPAIYRNEESRKWIKEGRLQPEFAFPIEIEWRESKNNKLRTFQVVDARKE”: the “soluble on expression in E. coli” value is reported as “not soluble”.

On to “MSLDTTPEHLVGTDAETIDLSFAAPAAPVEILHAAFATALEQLPRHFERHGYDRYGTAELREAVARWYQRRGLPTRPDHILITNGAQHALALLTRVLLSPRDKVLIDHPTYPHAITTFTQARARLLPVAVTSSGWDTEQLQAAGQAANLAYLIPDFHNPTGMCMPTSVRQQLRLACPTVVDETMTDLALDVPSPEPLALHMPTAISIGSVSKSVWGGLRTGWIRALPSLLERVEQARPTTDLGTPVVEQLATAVLLNEHQTQRPDTLQQLRSQRDALWQALTEHLPNVHAPQPAGGVTLWAAFPGPVSSRLAAMAPDHGVTIAAGPRFGIGGAFERNIRLPYTLPSSQLAQAIRRLAQAAQALAQGATGTEGHHHHHH”, for which the “soluble on expression in E. coli” value was “not soluble”. As for “MFPRALAIGTPAQHKATEAPVTSTSASGLARFNTLEETAALAELHEACAATAWARHLLAARPFATAEDLYAASDAAMAELSAEDLAEAMAGHPPIGRPKPGDATSSREQAGMAGAAEELKAEMLELNLAYQDKFGHVFLICATGRTGEQMRDAALERIGNSPEQEREIVRTELGKINRIRLTRLVEQDARPAAALEHHHHHH”, the “soluble on expression in E. coli” value is recorded as “soluble”. The result for “TIEARTAQSTPSAPPQKVMCVSMGSTTVRVSWVPPPADSRNGVITQYSVAYEAVDGEDRGRHVVDGISREHSSWDLVGLEKWTEYRVWVRAHTDVGPGPESSPVLVRTDEDVPSGPPRKVE” reads “soluble”; that for “MGSDKIHHHHHHMTEKKTMLEKLKKLMHHFTLSLDDISVETSRARQLSIRTEIDRLRSNERYKEPKSLIPFGGKIYSQNDEDGIIREIFNRIGTTNKVFVEFGIGNGLENNTLALLFEDWQGLWIDASSDSITSIRNHFSEIIGSGKLAVVESFITKANIDNLIATNVKHREIDLLSVDIDGNDYHVLQAISCITPRVIVIEYNAKFAPPVLFCMDYTETHMWTGDDCFGASLKFLETNLNKMGYCLVGCNLTGANAFFIRRELVTNKFLEPFTAENHFEPARYYLSGYASGHTPTYETLARSLTMRVS”, “not soluble”.

Take “MAKEFGRPQRVAQEMQKEIALILQREIKDPRLGMMTTVSGVEMSRDLAYAKVYVTFLNDKDEDAVKAGIKALQEASGFIRSLLGKAMRLRIVPELTFFYDNSLVEGMRMSNLVTSVVKHDEERRVNPDDSKEDLEHHHHHH”: the “soluble on expression in E. coli” value is on record as “soluble”. Next, “MGSDKIHHHHHHMKTLCTHSLPKEKMPYLLRSGEGERYLFGRQVATVMANGRSTGDLFEIVLLSGGKGDAFPLHVHKDTHEGILVLDGKLELTLDGERYLLISGDYANIPAGTPHSYRMQSHRTRLVSYTMKGNVAHLYSVIGNPYDHAEHPPYASEEVSNERFAEAAAVADIVFLDEAKPACSAKLAELTELPDGAVPYVLESGEGDRLLTGDQLHRIVAAQKNTDGQFIVVSSEGPKGDRIVDHYHEYHTETFYCLEGQMTMWTDGQEIQLNPGDFLHVPANTVHSYRLDSHYTKMVGVLVPGLFEPFFRTLGDPYEGHIFPCEPQALRFDRILQNIEALDLKVMKP”: “not soluble”; “MGSDKIHHHHHHLVGSGGTGAPPPRSSPMTTLYVTQPGSVVRSEGGSLTVWVETEADDPGPNDSPVRRKRLASVEPHRLESLVLLGFTTITANAMRLCMANKIAVSLLDGGGGLAARVVPPEARSADLRLHQYALHLDPPERLIRARAVVTAKLRNAAAVLRGIRSNQASSAALASAITQTEASAEAAAAAVSAESLLGIEGNGAHQYFAGLRTAFVGGIPFLGRAQRPPPDPANSLLSFGYVLLGNRLTGLLEARGVDPCLGFFHDLRPGRPSLALDLLEELRHPVVDRLALRICNLRKIQPQHFEPDAERPGGVKLTVDGRKIFLEEWEGHLARPLREPGVAAEHRLDVHRLLQRQVDRLVSDLRGGEPYRPFRFGTSRPG”: “not soluble”.

These data come from the DeepSol protein solubility set.
